Experiments:
calcitonin = biological target: T1, calcitonin (Homo sapiens, UniProt P01258); assay: Solution competition by Biacore: calcitonin; assay type: binding; conditions: pre-incubation with an excess of peptide
T1 sequence (P01258 85-116 limits assumed): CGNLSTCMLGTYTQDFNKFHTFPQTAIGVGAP
Excerpt: (§1) FIG. 5: Solution competition by Biacore: CGRP, CGRP fragments or peptides related in sequence to CGRP were used to determine the specificity of G1.
(§2) We determined the specificity of antibody G1 to human or rat CGRP by using the Biacore chip to “probe” the free concentration of a premixed complex of mAb+peptide.

[1] = test system: neurogenic skin flare rat model; assay: Neurogenic skin flare model (saphenous nerve stimulation, laser Doppler blood flow); assay type: in vivo; conditions: for start of significant decrease in blood flow response / development of neurogenic flare in vivo: rat
Procedure: FIG. 7: Data showing G1 inhibits neurogenic flare in the skin starting from 90 min post-treatment. G1 was administered by intravenous administration (1 ml/kg). Data are from 6-8 or 13 rats per group. *p=0.05, **p=0.01 vs vehicle (phosphate buffered saline) treated group at each time point (AVOVA).
Using a neurogenic skin flare rat model the efficacy of G1 was tested for its ability to block CGRP effect in vivo. The saphenous nerve in the rat is electrically stimulated causing CGRP release from nerve endings and leading to vasodilation, the resulting changes in blood flow can be measured using laser Dopler methods.
Changes in blood flow parameters were expressed as the area under the curve (AUC, change in arbitrary Doppler flux units multiplied by time). CGRP receptor antagonist CGRP8-37 (400 nmol/kg, i.v.) was used as a positive control to validate the specificity of the model (data not shown). To determine the effect of G1 prior to dosing for each animal, the baseline blood flow response to stimulation was established with two saphenous nerve stimulations each 30 minutes apart. Rats were treated with G1 after the blood flow response of the second stimulation had returned to baseline levels (approximately 10 minutes post stimulation) and an additional four stimulations at 30 minute intervals were performed.

rat β-CGRP = biological target: T2, rat β-CGRP (Rattus norvegicus, UniProt P10093, R105S); assay: Biacore binding affinity, N-biotin β-rat CGRP on chip; conditions: 37 ° C.
T2 construct: CGRP (calcitonin gene-related peptide) is a 37 amino acid neuropeptide
T2 sequence (P10093 89-125 R105S limits assumed): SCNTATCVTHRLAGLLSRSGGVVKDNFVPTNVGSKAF
Excerpt: (§3) G1 was titrated over the chip surface Binding affinities were deduced from the quotient of the kinetic rate constants (KD=koff/kon) see Table 1.

CNS penetration = conditions: in vivo
human β-CGRP = biological target: T3, human β-CGRP (Homo sapiens, UniProt P10092); assay: Biacore binding affinity, N-biotin β-human CGRP on chip; conditions: 37 ° C.
T3 construct: CGRP (calcitonin gene-related peptide) is a 37 amino acid neuropeptide
T3 sequence (P10092 82-118 limits assumed): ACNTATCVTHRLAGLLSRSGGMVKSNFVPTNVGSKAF
Excerpt: as §3

[2] = test system: OA hind limb of the rat (MMT); assay: Osteoarthritis pain model (transection of the medial meniscus, MMT), weight bearing; assay type: in vivo
Procedure: FIG. 1: Osteoarthritis pain model. […] Both antibodies were dissolved in a vehicle solution containing PBS+0.01% Tween 20. Celecoxib was used as positive control in the study. It was suspended in 0.5% methylcellulose and 0.025% Tween-20 and was administered by oral gavage (1 ml/kg) at 30 mg/kg, twice a day throughout the study period. Pain responses were assessed on day 2, 3, 7 and 10 following initiation of the pharmacology study (day 0) and were assessed in a fully blinded fashion. Data re the mean±SEM of 6 rats per group. *p<0.05 and p<0.01 vs baseline value (Dunnett's test in GraphPad Prism). In the figure, from left to right, bar 1=baseline, bars 2-5=null antibody, bars 6-9=1 mg/ml G2, bars 10-13=10 mg/ml G2, bars 14-17=Celecoxib 30 mg/ml.
Transection of the medial meniscus (MMT) in one hind knee of the rat results in the development of cartilage lesions and other changes in the joint similar to those that occur in OA. The resulting joint pain leads to the development of sustained changes in weight bearing (assessed using an incapacitance meter) in the rat hind limbs and mechanical (tactile) allodynia (assessed using von Frey filaments), in the hind paw, lasting several weeks. Studies were carried out accordingly to a blind protocol, where the investigator was not aware of the identity of the compound/control or the treatment of the animal.

human or rat CGRP = assay: Solution competition by Biacore: human or rat CGRP; assay type: binding; conditions: premixed mAb+peptide
Excerpt: as §1, §2

rat = assay: Gastro-intestinal adverse effects in-vivo study
rats = assay: Long term observation for adverse CNS events (dependence indicators); assay type: in vivo, rat; conditions: in comparison to control animals
human α-CGRP [3] = biological target: T4, human α-CGRP (Homo sapiens, UniProt P06881); assay: Biacore binding affinity, N-biotinylated human α-CGRP on chip; design: as full-length N-biotinylated human α-CGRP
T4 sequence (P06881 83-119 limits assumed): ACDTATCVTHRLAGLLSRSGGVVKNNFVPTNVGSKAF
Excerpt: as §3

[4] = biological target: 25-37 human α-CGRP fragment (Homo sapiens, UniProt P06881); assay: Epitope identification, alanine scan of C-terminal CGRP fragment (Biacore 3000); assay type: binding; conditions: 25° C.
Procedure: (§4) FIG. 4: Alanine scan using a C-terminal CGRP fragment (CGRP 25-37).
(§5) Interaction analysis was conducted at 25° C. on a Biacore 3000™ system equipped with streptavidin-coated (SA) sensor chips (Biacore AB, Uppsala, Sweden) using a standard Biacore running buffer (HBS-P). […] Each amino acid between position 27-37 was then mutated individually to alanine and expressed the fold loss in affinity compared to the wild-type fragment. […] Purified Fab fragments of antibody G1 were generated. Fab fragments were titrated over the chip using 1 μM as the top concentration of a two-fold dilution series. Association and dissociation phases were monitored at 100 μl/min for 1 minute and 5 minutes respectively. Surfaces were regenerated with a mixture of 35% ethanol+25 mM NaOH+0.5M NaCl.

[5] = test system: 25-37 human α-CGRP fragment; assay: as above; assay type: binding; conditions: Fab fragments, positions 27-37 mutated to alanine, 25° C.
Procedure: as §4, §5

amylin = biological target: T5, amylin (Homo sapiens, UniProt P10997); assay: Solution competition by Biacore: amylin; assay type: binding; conditions: pre-incubation with an excess of peptide
T5 sequence (P10997 34-70 limits assumed): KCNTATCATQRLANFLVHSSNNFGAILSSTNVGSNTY
Excerpt: as §1, §2

human α-CGRP [6] = biological target: T4, human α-CGRP; assay: Binding assay: blocking human α-CGRP from binding to the CGRP1-receptor in SK-N-MC cells; design: CGRP (calcitonin gene-related peptide) is a 37 amino acid neuropeptide; host or cells: SK-N-MC cells (endogenous receptor); conditions: FIG. 2
adrenomedullin = biological target: T6, adrenomedullin (Homo sapiens, UniProt P35318); assay: Solution competition by Biacore: adrenomedullin; assay type: binding; conditions: pre-incubation with an excess of peptide
T6 sequence (P35318 95-146 limits assumed): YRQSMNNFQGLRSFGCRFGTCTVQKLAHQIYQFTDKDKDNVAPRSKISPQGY
Excerpt: as §1, §2

rat α-CGRP = biological target: T7, rat α-CGRP (Rattus norvegicus, UniProt P01256); assay: Biacore binding affinity, N-biotinylated rat α-CGRP on chip
T7 construct: CGRP (calcitonin gene-related peptide) is a 37 amino acid neuropeptide
T7 sequence (P01256 83-119 limits assumed): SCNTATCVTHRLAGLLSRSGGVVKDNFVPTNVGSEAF
Excerpt: as §3

[7] = Plasma exposure of antibody in the OA pain study; assay type: in vivo; conditions: rat
Procedure: This effect lasted 10 days post administration when the plasma exposure of antibody G2 achieved an average value of 65.1±3 ug/ml (6.3±0.3 ug/ml, for the lower dose at 10 days post IV).

G1: humanized IgG2Δa monoclonal anti-CGRP antagonist antibody, vectors ATCC PTA-6867 and PTA-6866; variable regions SEQ ID Nos. 1 and 2 [Antibody G1]
complex formation with calcitonin (calcitonin): did not form a complex | effect in further neurogenic flare and vasodilatation model tests ([1]; 7 days post IV dosing): marked effect | start of inhibition of neurogenic flare in the skin ([1]; FIG. 7, intravenous administration): 90 min post-treatment | start of significant decrease in blood flow response ([1]; 1 mg/kg IV): 120 minutes post dose | start of significant decrease in blood flow response ([1]; 10 mg/kg IV): 90 minutes post dose | development of neurogenic flare in vivo [1]: prevent the development of neurogenic flare in vivo | predicted ED50 ([1]; saphenous nerve stimulation model): 6 mg/L | koff (rat β-CGRP): 7.85e-05 s⁻¹ | kon (rat β-CGRP): 516000 M⁻¹ s⁻¹ | CNS penetration / crossing of blood brain barrier (CNS penetration): Neither antibody G1 nor antibody G2 demonstrate CNS penetration | koff (human β-CGRP): 6.98e-05 s⁻¹ | kon (human β-CGRP): 451000 M⁻¹ s⁻¹ | shift in weight bearing on the OA limb ([2]; repeat experiments, buffer as negative control): reversed the shift in weight bearing on the OA limb to normal value | Biacore response after pre-incubation with human or rat CGRP (human or rat CGRP): fully blocked | adverse gastro intestinal effects on behaviour, food intake, stool production or histopathology (rat; 1 week comparative study): no adverse gastro intestinal effects were observed | adverse CNS events such as sedation or stimulation/euphoric behaviour (rats): did not reveal adverse CNS events | koff (human α-CGRP [3]; 25 ° C.): 7.8e-06 s⁻¹ | kon (human α-CGRP [3]; 25 ° C.): 186000 M⁻¹ s⁻¹ | koff (human α-CGRP [3]; 37 ° C.): 3.63e-05 s⁻¹ | kon (human α-CGRP [3]; 37 ° C.): 587000 M⁻¹ s⁻¹ | affinity of N-biotinylated 25-37 human α-CGRP fragment vs full-length N-biotinylated human α-CGRP [4]: bound with the same affinity | alanine scan result, binding region (epitope) [5]: binds to the C-terminal region of human α-CGRP, particularly residues 25 to 37 | complex formation with amylin (amylin): did not form a complex | inhibition of binding of α-CGRP to the CGRP1 receptor (human α-CGRP [6]): inhibits the binding of α-CGRP to the CGRP1 receptor | complex formation with adrenomedullin (adrenomedullin): did not form a complex | koff (rat α-CGRP; 25 ° C.): 6.18e-05 s⁻¹ | kon (rat α-CGRP; 25 ° C.): 50800 M⁻¹ s⁻¹ | koff (rat α-CGRP; 37 ° C.): 0.000399 s⁻¹ | kon (rat α-CGRP; 37 ° C.): 155000 M⁻¹ s⁻¹

B1: G2: anti-rat CGRP mouse monoclonal antibody (Wong H C et al. 1993); variable regions SEQ ID Nos. 19 and 20; RN4901 = murine tool in Table 1 legend (antibody, V domains shown)
VH: EVQLQQSGPELVKPGASVKMSCKASGYTFTSSVMHWVKQKPGQGLEWIGYINPYNDGTKYNEKFKGKATLTSDKSSSTAYMELSSLTSEDSAVYYCAKGGNDGYWGQGTTLTVSS
VL: EIVLTQSPTTMAASPGEKITITCSASSSISSIYLHWYQQKPGFSPKVLIYRASNLASGVPARFSGSGSGTSYSLTIGTMEAEDVATYYCQQGSTIPFTFGSGTKLEIK
modifications: Synthetic polypeptide, Antibody G2 heavy chain variable region; Synthetic polypeptide, Antibody G2 light chain variable region
development of neurogenic flare in vivo [1]: prevent the development of neurogenic flare in vivo | plasma exposure, average value ([7]; 10 mg/kg IV, 10 days post administration): 65.1 ± 3 µg/mL | plasma exposure, average value ([7]; lower dose, 10 days post IV): 6.3 ± 0.3 µg/mL | CNS penetration / crossing of blood brain barrier (CNS penetration): Neither antibody G1 nor antibody G2 demonstrate CNS penetration | duration of effect on weight bearing ([2]; 10 mg/kg, IV): 10 days post administration | weight bearing deficit of the OA hind limb ([2]; 10 mg/kg, IV): reversed weight bearing deficit of the OA hind limb | weight bearing deficit of the OA hind limb ([2]; lower dose (1 mg/kg, IV)): No effect | adverse gastro intestinal effects on behaviour, food intake, stool production or histopathology (rat; 1 month study): no adverse gastro intestinal effects were observed | adverse CNS events such as sedation or stimulation/euphoric behaviour (rats): did not reveal adverse CNS events

Reference: US8298536B2, “Methods of treating inflammatory pain” (Pfizer Limited, priority 2008, dated 2012)
